Measurements reported in paper PMC10397247.

Tests used:
4H121-bN = biological target: T1, 4H121-bN; assay: two-hybrid library CCNG1;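 note: natural log of median RNA to DNA barcode read ratio; higher means stronger binding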
T1 chain: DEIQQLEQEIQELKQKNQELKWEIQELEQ

4H182-bN = biological target: T2, 4H182-bN; assay: two-hybrid library CCNG1;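 note: natural log of median RNA to DNA barcode read ratio; higher means stronger binding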
T2 chain: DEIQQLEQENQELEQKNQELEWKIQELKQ

4H2134-bN = biological target: T3, 4H2134-bN; assay: two-hybrid library CCNG1;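 note: natural log of median RNA to DNA barcode read ratio; higher means stronger binding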
T3 chain: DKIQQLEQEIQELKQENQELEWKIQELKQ

4H2143-bN = biological target: T4, 4H2143-bN; assay: two-hybrid library CCNG1;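 note: natural log of median RNA to DNA barcode read ratio; higher means stronger binding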
T4 chain: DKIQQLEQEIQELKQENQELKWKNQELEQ

4H2223-bN = biological target: T5, 4H2223-bN; assay: two-hybrid library CCNG1;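 note: natural log of median RNA to DNA barcode read ratio; higher means stronger binding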
T5 chain: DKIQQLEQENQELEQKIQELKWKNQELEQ

4H2438-bN = biological target: T6, 4H2438-bN; assay: two-hybrid library CCNG1;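 note: natural log of median RNA to DNA barcode read ratio; higher means stronger binding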
T6 chain: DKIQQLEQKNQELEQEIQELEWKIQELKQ

4H2473-bN = biological target: T7, 4H2473-bN; assay: two-hybrid library CCNG1
T7 chain: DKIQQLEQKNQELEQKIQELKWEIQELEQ

4H2503-bN = biological target: T8, 4H2503-bN; assay: two-hybrid library CCNG1
T8 chain: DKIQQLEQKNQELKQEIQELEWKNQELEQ

4H2588-bN = biological target: T9, 4H2588-bN; assay: two-hybrid library CCNG1
T9 chain: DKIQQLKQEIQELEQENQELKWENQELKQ

4H2692-bN = biological target: T10, 4H2692-bN; assay: two-hybrid library CCNG1
T10 chain: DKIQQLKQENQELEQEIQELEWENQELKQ

4H2717-bN = biological target: T11, 4H2717-bN; assay: two-hybrid library CCNG1
T11 chain: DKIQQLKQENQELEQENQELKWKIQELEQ

4H2839-bN = biological target: T12, 4H2839-bN; assay: two-hybrid library CCNG1
T12 chain: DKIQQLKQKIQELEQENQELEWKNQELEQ

4H2915-bN = biological target: T13, 4H2915-bN; assay: two-hybrid library CCNG1
T13 chain: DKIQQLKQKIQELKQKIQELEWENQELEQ

4H3057-bN = biological target: T14, 4H3057-bN; assay: two-hybrid library CCNG1
T14 chain: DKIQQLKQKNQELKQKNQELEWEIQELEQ

4H319-bN = biological target: T15, 4H319-bN; assay: two-hybrid library CCNG1
T15 chain: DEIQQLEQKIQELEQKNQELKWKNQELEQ

4H3277-bN = biological target: T16, 4H3277-bN; assay: two-hybrid library CCNG1
T16 chain: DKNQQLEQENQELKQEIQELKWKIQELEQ

4H348-bN = biological target: T17, 4H348-bN; assay: two-hybrid library CCNG1
T17 chain: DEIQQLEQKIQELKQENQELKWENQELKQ

4H3974-bA = biological target: T18, 4H3974-bA; assay: two-hybrid library CCNG1
T18 chain: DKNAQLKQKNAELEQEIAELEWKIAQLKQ

4H40-bN = biological target: T19, 4H40-bN; assay: two-hybrid library CCNG1
T19 chain: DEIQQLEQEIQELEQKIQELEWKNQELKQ

4H477-bN = biological target: T20, 4H477-bN; assay: two-hybrid library CCNG1
T20 chain: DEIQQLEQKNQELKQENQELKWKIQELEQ

4H492-bN = biological target: T21, 4H492-bN; assay: two-hybrid library CCNG1
T21 chain: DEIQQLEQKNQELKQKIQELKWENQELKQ

4H741-bN = biological target: T22, 4H741-bN; assay: two-hybrid library CCNG1
T22 chain: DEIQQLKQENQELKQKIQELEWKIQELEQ

Core_NINN-es_KEKK = biological target: T23, Core_NINN-es_KEKK; assay: two-hybrid library CCmax; settings: mean of both orientations
T23 chain: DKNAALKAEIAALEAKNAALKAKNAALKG

Core_IINI-es_KKKE = biological target: T24, Core_IINI-es_KKKE; assay: two-hybrid library CCmax; settings: mean of both orientations
T24 chain: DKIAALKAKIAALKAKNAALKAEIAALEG

Core_NNNI-es_KKKE = biological target: T25, Core_NNNI-es_KKKE; assay: two-hybrid library CCmax; settings: mean of both orientations
T25 chain: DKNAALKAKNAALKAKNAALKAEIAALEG

4H1046-bH = biological target: T26, 4H1046-bH; assay: two-hybrid library CCNG1; settings: mean of both orientations
T26 chain: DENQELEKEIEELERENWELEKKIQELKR

4H1072-bH = biological target: T27, 4H1072-bH; assay: two-hybrid library CCNG1
T27 chain: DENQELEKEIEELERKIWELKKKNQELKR

4H2568-bH = biological target: T28, 4H2568-bH; assay: two-hybrid library CCNG1
T28 chain: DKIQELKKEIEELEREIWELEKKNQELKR

4H2619-bH = biological target: T29, 4H2619-bH; assay: two-hybrid library CCNG1
T29 chain: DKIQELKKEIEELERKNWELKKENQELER

4H2745-bH = biological target: T30, 4H2745-bH; assay: two-hybrid library CCNG1
T30 chain: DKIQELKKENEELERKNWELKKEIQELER

4H344-bH = biological target: T31, 4H344-bH; assay: two-hybrid library CCNG1
T31 chain: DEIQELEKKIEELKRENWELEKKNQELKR

4H363-bH = biological target: T32, 4H363-bH; assay: two-hybrid library CCNG1
T32 chain: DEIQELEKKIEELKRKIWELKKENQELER

4H3907-bH = biological target: T33, 4H3907-bH; assay: two-hybrid library CCNG1
T33 chain: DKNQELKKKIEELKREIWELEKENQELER

4H3961-bH = biological target: T34, 4H3961-bH; assay: two-hybrid library CCNG1; settings: mean of both orientations
T34 chain: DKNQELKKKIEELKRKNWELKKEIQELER

4H470-bH = biological target: T35, 4H470-bH; assay: two-hybrid library CCNG1
T35 chain: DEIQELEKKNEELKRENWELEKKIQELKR

Core_NNIN-es_KEEE = biological target: T36, Core_NNIN-es_KEEE; assay: two-hybrid library CCmax
T36 chain: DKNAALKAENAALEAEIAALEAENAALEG

P2p = biological target: T37, P2p; assay: two-hybrid library CCmax; settings: mean of both orientations
T37 chain: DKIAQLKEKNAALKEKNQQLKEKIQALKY

P2-AA-1HAA-D = biological target: T38, P2-AA-1HAA-D; assay: two-hybrid library CCmax; settings: mean of both orientations
T38 chain: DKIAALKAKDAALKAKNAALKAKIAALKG

P2-AA-1HAA-I = biological target: T39, P2-AA-1HAA-I; assay: two-hybrid library CCmax; settings: mean of both orientations
T39 chain: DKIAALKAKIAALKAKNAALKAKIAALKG

P2-AA-1HAA-K = biological target: T40, P2-AA-1HAA-K; assay: two-hybrid library CCmax; settings: mean of both orientations
T40 chain: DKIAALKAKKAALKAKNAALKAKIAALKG

P2-AA-1HAA-L = biological target: T41, P2-AA-1HAA-L; assay: two-hybrid library CCmax; settings: mean of both orientations
T41 chain: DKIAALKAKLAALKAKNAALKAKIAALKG

P2-AA-1HAA-R = biological target: T42, P2-AA-1HAA-R; assay: two-hybrid library CCmax; settings: mean of both orientations
T42 chain: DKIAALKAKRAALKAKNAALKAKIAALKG

P2-AA-1HAA-S = biological target: T43, P2-AA-1HAA-S; assay: two-hybrid library CCmax; settings: mean of both orientations
T43 chain: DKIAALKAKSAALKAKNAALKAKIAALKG

P2-AA-1HAA-T = biological target: T44, P2-AA-1HAA-T; assay: two-hybrid library CCmax; settings: mean of both orientations
T44 chain: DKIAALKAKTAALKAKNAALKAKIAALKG

P2-AA = biological target: T45, P2-AA; assay: two-hybrid library CCmax; settings: mean of both orientations
T45 chain: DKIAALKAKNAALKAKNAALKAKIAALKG

P3SH = biological target: T46, P3SH; assay: two-hybrid library CCNG1
T46 chain: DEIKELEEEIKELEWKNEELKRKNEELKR

P4SH = biological target: T47, P4SH; assay: two-hybrid library CCNG1
T47 chain: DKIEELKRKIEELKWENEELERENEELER

P5SH = biological target: T48, P5SH; assay: two-hybrid library CCNG1
T48 chain: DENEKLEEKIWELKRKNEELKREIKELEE

P6SH = biological target: T49, P6SH; assay: two-hybrid library CCNG1
T49 chain: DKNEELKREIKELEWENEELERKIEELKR

P7SH = biological target: T50, P7SH; assay: two-hybrid library CCNG1
T50 chain: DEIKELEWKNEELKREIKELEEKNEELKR

P8SH = biological target: T51, P8SH; assay: two-hybrid library CCNG1
T51 chain: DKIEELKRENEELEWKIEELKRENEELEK

P4S-Cys = biological target: T52, P4S-Cys; assay: two-hybrid library CCNG1; settings: mean of both orientations
T52 chain: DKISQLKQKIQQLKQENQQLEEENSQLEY

B1: 4H121-bN (peptide)
chain: DEIQQLEQEIQELKQKNQELKWEIQELEQ
- interaction score (4H121-bN): -0.707
- interaction score (4H182-bN): -0.748
- interaction score (4H2134-bN): 1.52
- interaction score (4H2143-bN): -0.718
- interaction score (4H2223-bN): -0.986
- interaction score (4H2438-bN): 1.48
- interaction score (4H2473-bN): -0.436
- interaction score (4H2503-bN): -1.29
- interaction score (4H2588-bN): -0.5
- interaction score (4H2692-bN): -1.02
- interaction score (4H2717-bN): -0.302
- interaction score (4H2839-bN): -0.184
- interaction score (4H2915-bN): -0.211
- interaction score (4H3057-bN): -1.3
- interaction score (4H319-bN): -1.04
- interaction score (4H3277-bN): -1.33
- interaction score (4H348-bN): -0.398
- interaction score (4H3974-bA): 1.19
- interaction score (4H40-bN): -0.563
- interaction score (4H477-bN): -1.35
- interaction score (4H492-bN): -1.42
- interaction score (4H741-bN): -1.39

B2: Core_NINN-es_EKEE (peptide)
chain: DENAALEAKIAALKAENAALEAENAALEG
- interaction score (Core_NINN-es_KEKK): 1.5

B3: Core_IINI-es_EEEK (peptide)
chain: DEIAALEAEIAALEAENAALEAKIAALKG
- interaction score (Core_IINI-es_KKKE): 2.3

B4: Core_NNNI-es_EEEK (peptide)
chain: DENAALEAENAALEAENAALEAKIAALKG
- interaction score (Core_NNNI-es_KKKE): 2.16

B5: 4H1046-bH (peptide)
chain: DENQELEKEIEELERENWELEKKIQELKR
- interaction score (4H1046-bH): 0.287
- interaction score (4H1072-bH): -0.477
- interaction score (4H2568-bH): 1.03
- interaction score (4H2619-bH): 0.439
- interaction score (4H2745-bH): 0.917
- interaction score (4H344-bH): 1.33
- interaction score (4H363-bH): -1.16
- interaction score (4H3907-bH): -0.121
- interaction score (4H3961-bH): -0.386
- interaction score (4H470-bH): 0.405

B6: Core_NNIN-es_EKKK (peptide)
chain: DENAALEAKNAALKAKIAALKAKNAALKG
- interaction score (Core_NNIN-es_KEEE): 1.83

B7: P1p (peptide)
chain: DEIQALEEENAQLEQENAALEEEIAQLEY
- interaction score (P2p): 1.64

B8: P1-AA-1HAA-D (peptide)
chain: DEIAALEAEDAALEAENAALEAEIAALEG
- interaction score (P2-AA-1HAA-D): 0.443
- interaction score (P2-AA-1HAA-I): 1.89
- interaction score (P2-AA-1HAA-K): 1.56
- interaction score (P2-AA-1HAA-L): 2.16
- interaction score (P2-AA-1HAA-R): 1.66
- interaction score (P2-AA-1HAA-S): 1.57
- interaction score (P2-AA-1HAA-T): 1.59
- interaction score (P2-AA): 2.18

B9: P3SH (peptide)
chain: DEIKELEEEIKELEWKNEELKRKNEELKR
- interaction score (P3SH): 0.764
- interaction score (P4SH): 1.95
- interaction score (P5SH): 0.554
- interaction score (P6SH): 0.737
- interaction score (P7SH): -0.109
- interaction score (P8SH): 0.525

B10: Cys-P3S (peptide)
chain: DEIQQLEEEISQLEQKNSQLKEKNQQLKY
- interaction score (P4S-Cys): 1.92
